Results from patent US20130347134A1, “TRANSGENIC VON WILLEBRAND FACTOR ANIMALS AND USES THEREOF” (priority 2012, published 2013).

Tested on: murine platelets
Assay: In vitro flow chamber, mouse platelets on recombinant VWF-A1, 800 s^-1
Format: cell-based
Conditions: wall shear rate 800 s^−1
Description: The protein was subsequently used in a series of in vitro flow chamber assays to assess function. Washed human or murine platelets (5×10^7/ml) were infused through a parallel plate flow chamber containing glass cover slips coated with either human VWF-A1 or mouse VWF-A1 protein (100 μg/ml final concentration) at a shear rate of 800 s^−1. After 5 minutes of continuous flow, adherent platelets were quantified.
In the case of the latter, the murine A1 fragment was inserted into pET-11b (Stratagene) and purified as previously described (Miura et al., 2000).
Support for this hypothesis is provided by mutagenesis studies. By analyzing the data obtained from the crystal structure of the murine VWF-A1 domain, the inventors have identified several residues that may participate in interactions with GPIb α (FIG. 15C). Residue 1326 was initially chosen for study and was mutated to the corresponding amino acid at the identical location in its human counterpart (from Arg to His). Subsequently, the ability of murine and human platelets to interact with this mutant protein substrate was evaluated at a wall shear rate of 800 s^−1. Incorporation of a histidine for arginine at position 1326 in murine VWF-A1 reduced murine platelet adhesion by about 5-fold and increased translocation velocities of cells by about 7-fold as compared to the WT mouse protein (FIGS. 13 and 16). […]

B1: His-tag M VWF-A1: recombinant murine VWF-A1 with N-terminus His tag (protein)
chain: QEPGGLVAPPTDAPVSSTTPYVEDTPEPPLHNFYCSKLLDLVFLLDGSSMLSEAEFEVLKAFVVGMMERLHISQKRIRVAVVEYHDGSRAYLELKARKRPSELRRITSQIKYTGSQVASTSEVLKYTLFQIFGKIDRPEASHITLLLTASQEPPRMARNLVRYVQGLKKKKVIVIPVGIGPHASLKQIRLIEKQAPENKAFLLSGVDELEQRRDEIVSYLCDLAPEAPAPTQPP
Question: B1 was tested. Which “platelets that adhered to and translocated” value did it give?
Answer: Its value is 449±53 platelets/mm^2.
